# Source: US10736988B2, “Bone substitute nanocomposites and methods of synthesis using multiphosphorylated peptides” (UNIVERSITY OF PITTSBURGH—OF THE COMMONWEALTH SYSTEM OF …, priority 2012, dated 2020)
# Several values for one entry are separate records, joined by “and”; a condition that tells them apart may be missing. Identical values can stand only once. Like-named read-outs stand apart in the source and are kept apart here.
# B1: phosphophoryn (protein, UniProt Q9NZW4 463-1301, looked up)
# Dentin phosphoprotein: DDPNSSDESNGNDDANSESDNNSSSRGDASYNSDESKDNGNGSDSKGAEDDDSDSTSDTNNSDSNGNGNNGNDDNDKSDSGKGKSDSSDSDSSDSSNSSDSSDSSDSDSSDSNSSSDSDSSDSDSSDSSDSDSSDSSNSSDSSDSSDSSDSSDSSDSSDSKSDSSKSESDSSDSDSKSDSSDSNSSDSSDNSDSSDSSNSSNSSDSSDSSDSSDSSSSSDSSNSSDSSDSSDSSNSSESSDSSDSSDSDSSDSSDSSNSNSSDSDSSNSSDSSDSSNSSDSSDSSDSSNSSDSSDSSDSSNSSDSSDSSDSSDSSDSSNSSDSNDSSNSSDSSDSSNSSDSSNSSDSSDSSDSSDSDSSNSSDSSNSSDSSDSSNSSDSSDSSDSSDGSDSDSSNRSDSSNSSDSSDSSDSSNSSDSSDSSDSNESSNSSDSSDSSNSSDSDSSDSSNSSDSSDSSNSSDSSESSNSSDNSNSSDSSNSSDSSDSSDSSNSSDSSNSSDSSNSSDSSDSNSSDSSDSSNSSDSSDSSDSSDSSDSSDSSNSSDSSDSSDSSDSSNSSDSSNSSDSSNSSDSSDSSDSSDSSDSSDSSDSSDSSNSSDSSDSSDSSDSSDSSDSSDSSDSSESSDSSDSSNSSDSSDSSDSSDSSDSSDSSDSSDSSDSSNSSDSSDSSDSSDSSDSSNSSDSSDSSESSDSSDSSDSSDSSDSSDSSDSSDSSDSSNSSDSSDSSDSSDSSDSSDSSDSSDSSDSSDSSDSSDSSDSSDSSDSSDSSDSNESSDSSDSSDSSDSSNSSDSSDSSDSSDSTSDSNDESDSQSKSGNGNNNGSDSDSDSEGSDSNHSTSDD
# modifications: Dentin phosphoprotein
# notes: major non-collagenous protein in dentin, Ser-Ser-Asp repeat motifs
# B2: dentin matrix protein 1 (protein, UniProt Q13316 17-513, looked up)
# Dentin matrix acidic …: LPVTRYQNNESEDSEEWKGHLAQAPTPPLESSESSEGSKVSSEEQANEDPSDSTQSEEGLGSDDHQYIYRLAGGFSRSTGKGGDDKDDDEDDSGDDTFGDDDSGPGPKDRQEGGNSRLGSDEDSDDTIQASEESAPQGQDSAQDTTSESRELDNEDRVDSKPEGGDSTQESESEEHWVGGGSDGESSHGDGSELDDEGMQSDDPESIRSERGNSRMNSAGMKSKESGENSEQANTQDSGGSQLLEHPSRKIFRKSRISEEDDRSELDDNNTMEEVKSDSTENSNSRDTGLSQPRRDSKGDSQEDSKENLSQEESQNVDGPSSESSQEANLSSQENSSESQEEVVSESRGDNPDPTTSYVEDQEDSDSSEEDSSHTLSHSKSESREEQADSESSESLNFSEESPESPEDENSSSQEGLQSHSSSAESQSEESHSEEDDSDSQDSSRSKEDSNSTESKSSSEEDGQLKNIEIESRKLTVDAYHNKPIGDQDDNDCQDGY
# B3: … (peptide)
# chain: RRRDEDESSDSSDSSDSSDSSDSSDSSDSSDSSDSSDSSDSSDSSDSSDSSDSSDSSDSSDSSDSSDDEG
# modifications: derived from consensus mammalian sequence of DSPP; (8)..(68) [Asp Ser Ser] repeats (n varies from 2 to 20); (1)..(3) Insertion of 3 Arg at the N terminus of the peptide; (4)..(7) Casein kinase 1 recognition motif; (69)..(71) Casein kinase 2 recognition motif
# B4: … (peptide)
# chain: B3 chain
# modifications: derived from consensus mammalian sequence of DSPP; (8)..(68) [Asp Ser Ser] repeats (n varies from 2 to 20); (1)..(3) Insertion of 3 Arg at the N terminus of the peptide; (4)..(7) Casein kinase 1 recognition motif; (69)..(71) Casein kinase 2 recognition motif
# Tests used:
# [1] = tested on: collagen fibrils; settings: cited from earlier work
# [2] = target: T1, Casein Kinase 2 (CK2) (Homo sapiens, UniProt P68400); experiment: In vitro phosphorylation of peptide by CK2 (32P scintillation / autoradiography); format: biochemical; settings: for average number of phosphates per peptide: SD in parenthesis
# T1 construct: purchased Millipore Inc. 14-197
# T1 sequence (P68400 whole entry): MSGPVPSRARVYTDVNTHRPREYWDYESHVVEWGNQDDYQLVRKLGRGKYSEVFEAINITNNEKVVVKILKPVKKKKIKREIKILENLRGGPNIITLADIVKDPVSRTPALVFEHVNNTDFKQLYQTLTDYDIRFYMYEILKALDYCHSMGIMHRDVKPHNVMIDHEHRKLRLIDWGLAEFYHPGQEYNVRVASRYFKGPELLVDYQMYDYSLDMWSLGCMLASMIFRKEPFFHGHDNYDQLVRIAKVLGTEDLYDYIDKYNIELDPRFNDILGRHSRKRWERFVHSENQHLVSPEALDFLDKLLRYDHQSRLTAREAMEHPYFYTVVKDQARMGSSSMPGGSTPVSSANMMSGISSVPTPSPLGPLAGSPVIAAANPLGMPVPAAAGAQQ
# T1 sequence (P67870 whole entry partner): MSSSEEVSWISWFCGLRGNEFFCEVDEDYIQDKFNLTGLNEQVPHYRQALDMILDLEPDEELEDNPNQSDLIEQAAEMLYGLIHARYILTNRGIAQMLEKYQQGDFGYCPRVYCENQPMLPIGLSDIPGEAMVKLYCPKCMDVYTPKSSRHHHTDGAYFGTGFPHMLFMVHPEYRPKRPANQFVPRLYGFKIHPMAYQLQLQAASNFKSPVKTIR
# Text: (§1) R-SSD3 indicated by SEQ NO. […] ATP was used for the scintillation counter experiments.
# [3] = tested on: CK1 and CK2; experiment: In vitro phosphorylation of peptide by CK1 and CK2 combined (32P scintillation); format: biochemical; settings: for average number of phosphates per peptide: SD in parenthesis
# Text: as §1
# [4] = tested on: mixture of CK1 and CK2; experiment: Mass spectrometry identification of phosphates incorporated by a mixture of CK1 and CK2; format: biochemical; settings: MS, one hour
# Method: For mass spectrometry (MS) analysis, the reaction was performed as above, however, radiolabeled ATP was not used and the reaction mixture was transferred into a Tube-O-DIALYZER with a MWCO of 1000 and dialyzed overnight.
# For MALDI-TOF-MS analysis, the peptides and CHCA matrix (α-cyano-4-hydroxycinnamic acid, 10 μg/μl, in 50% acetonitrile containing 0.1% trifluoroacetic acid) solutions were premixed in a small Eppendorf tube, spun down and remixed three times, then applied directly to the sample plate. Once applied to the target, the sample was allowed to air dry. The samples were analyzed using an Applied Biosystems (Foster City, Calif.) Voyager DE Pro or 4700 Proteomics Analyzer TOF/TOF instrument. The samples were also analyzed by LC-MS/MS on a ThermoFischer (Waltham, Mass.) Surveyor LC System coupled to a ThermoFischer LCQ Deca XP Plus mass spectrometer equipped with a nanospray ion source and also a ThermoFischer LTQ-XL instrument. The LC System contained a sample trap followed by a C18 column (BioBasic C18 PicoFrit column, 10 cm×75 μM, New Objective, Inc., Woburn, Mass.). […]
# Upon elution of the C18 column, the analyte was ionized by nano-capillary ESI. […] The MS/MS spectra were analyzed with BioWorks 3.2 Browser with the Sequest search engine. […]
# [5] = target: T2, type I collagen fibrils (Rattus norvegicus, UniProt P02454+P02466); experiment: On-grid mineralization of reconstituted collagen fibrils (TEM/SAED)
# T2 construct: from an acidic rat tail collagen solution; from tissue; host or cells: rat tail
# T2 sequence (P02454 152-1207 limits assumed): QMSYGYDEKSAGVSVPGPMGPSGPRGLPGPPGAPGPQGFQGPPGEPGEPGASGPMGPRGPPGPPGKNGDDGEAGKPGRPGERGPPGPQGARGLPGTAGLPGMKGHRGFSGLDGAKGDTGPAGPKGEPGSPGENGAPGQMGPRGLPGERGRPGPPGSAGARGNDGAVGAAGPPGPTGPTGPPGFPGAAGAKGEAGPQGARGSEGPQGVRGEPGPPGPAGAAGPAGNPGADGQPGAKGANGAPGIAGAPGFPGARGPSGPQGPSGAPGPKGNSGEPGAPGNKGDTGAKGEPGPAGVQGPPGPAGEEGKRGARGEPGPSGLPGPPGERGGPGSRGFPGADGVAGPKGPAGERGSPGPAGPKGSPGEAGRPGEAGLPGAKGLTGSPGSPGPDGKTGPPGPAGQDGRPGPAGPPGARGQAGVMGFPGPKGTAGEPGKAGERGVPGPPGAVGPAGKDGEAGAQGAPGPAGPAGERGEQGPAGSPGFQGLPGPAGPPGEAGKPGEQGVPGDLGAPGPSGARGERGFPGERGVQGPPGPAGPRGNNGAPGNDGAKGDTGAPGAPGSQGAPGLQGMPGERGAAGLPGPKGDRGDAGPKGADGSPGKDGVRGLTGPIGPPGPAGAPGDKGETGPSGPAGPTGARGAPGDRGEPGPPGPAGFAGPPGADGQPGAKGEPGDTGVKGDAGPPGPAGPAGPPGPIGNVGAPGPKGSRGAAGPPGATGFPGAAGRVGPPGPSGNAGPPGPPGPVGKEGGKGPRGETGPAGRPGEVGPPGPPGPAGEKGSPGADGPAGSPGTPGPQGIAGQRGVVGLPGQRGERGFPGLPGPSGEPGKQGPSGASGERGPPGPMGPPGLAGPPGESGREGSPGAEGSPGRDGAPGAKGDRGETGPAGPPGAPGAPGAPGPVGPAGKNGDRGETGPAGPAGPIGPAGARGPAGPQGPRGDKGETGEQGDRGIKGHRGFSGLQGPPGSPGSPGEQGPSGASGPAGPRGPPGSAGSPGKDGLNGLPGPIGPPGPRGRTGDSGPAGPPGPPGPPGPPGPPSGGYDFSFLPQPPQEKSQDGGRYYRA
# T2 sequence (P02466 86-1125 limits assumed): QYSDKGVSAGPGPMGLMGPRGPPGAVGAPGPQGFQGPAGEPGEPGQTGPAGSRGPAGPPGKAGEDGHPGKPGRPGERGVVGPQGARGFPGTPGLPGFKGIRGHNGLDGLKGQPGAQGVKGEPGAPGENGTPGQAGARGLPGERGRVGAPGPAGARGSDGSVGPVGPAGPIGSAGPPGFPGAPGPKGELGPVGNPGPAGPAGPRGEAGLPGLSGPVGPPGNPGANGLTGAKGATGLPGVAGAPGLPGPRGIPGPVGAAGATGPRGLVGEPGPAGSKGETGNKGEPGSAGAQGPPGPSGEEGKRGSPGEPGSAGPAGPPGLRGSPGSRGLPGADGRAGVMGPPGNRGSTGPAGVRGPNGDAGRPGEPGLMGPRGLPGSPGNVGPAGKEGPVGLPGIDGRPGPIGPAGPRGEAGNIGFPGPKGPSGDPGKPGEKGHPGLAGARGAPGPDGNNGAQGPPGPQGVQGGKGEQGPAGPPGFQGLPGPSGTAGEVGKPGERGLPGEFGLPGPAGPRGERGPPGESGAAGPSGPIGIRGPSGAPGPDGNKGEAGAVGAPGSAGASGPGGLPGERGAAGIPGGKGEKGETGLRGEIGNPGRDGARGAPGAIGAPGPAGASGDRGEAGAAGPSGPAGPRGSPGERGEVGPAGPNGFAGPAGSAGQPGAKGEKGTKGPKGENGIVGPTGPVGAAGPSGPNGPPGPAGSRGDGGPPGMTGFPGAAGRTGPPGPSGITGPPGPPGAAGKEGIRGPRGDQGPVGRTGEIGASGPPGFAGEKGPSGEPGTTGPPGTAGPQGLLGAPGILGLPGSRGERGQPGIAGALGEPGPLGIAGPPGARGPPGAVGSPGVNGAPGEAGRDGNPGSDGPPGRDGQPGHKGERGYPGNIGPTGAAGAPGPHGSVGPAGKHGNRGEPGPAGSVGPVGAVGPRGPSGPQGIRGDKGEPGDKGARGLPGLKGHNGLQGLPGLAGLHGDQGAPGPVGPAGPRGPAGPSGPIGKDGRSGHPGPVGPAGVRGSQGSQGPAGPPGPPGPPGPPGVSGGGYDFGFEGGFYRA
# Method: Mineralization experiments were carried out using a modification of an “on grid” mineralization setup developed in a lab and published in the art. The type I collagen fibrils were reconstituted on carbon-coated Cu grids, mesh #400 (EMS, Hatfield, Pa.) from an acidic rat tail collagen solution. Concentrated 10×PBS (mono- and disodium phosphate totaling 40 mM and 1.5 M NaCl), phosphorylated with CK2 and nonphosphorylated protein stock solution, […] to obtain 4 mM PBS, 1.67 mM Ca and 15 μg/ml peptide. Prior to the experiments, the pH of concentrated 10×PBS was adjusted such that upon mixing, the pH of the final mineralization solution was 7.8. The TEM grids coated with reconstituted collagen fibrils were floated on 50 μL droplets of the mineralization solution at 100% humidity for 16 hours at 37° C.
# TEM and selected area electron diffraction (SAED) studies were conducted using JEOL 1210 operated at 100 kV. The micrographs were recorded using an AMT CCD camera (AMT, Danvers, Mass.). An aluminum-coated TEM grid (EMS Hatfield, Pa.) was used as a standard for the calibration of SAED patterns for d-spacing calculations. The micrographs were analyzed using an ImageJ 1.38 software package (Bethesda, Md.).
# [6] = tested on: Casein Kinase 1 (CK1); settings: for average number of phosphates per peptide: SD in parenthesis
# Method: R-SSD3 indicated by SEQ NO. 2 was phosphorylated in vitro by CK1, CK2 or a mixture of both kinases. ATP was used as a source of phosphate; and [γ-^32P] ATP was used for the scintillation counter experiments. The standard assay mixture consisted of 50 mM Tris-HCl, pH 7.4, 5 mM MgCl2, 1 mM EGTA and 10 mM β-glycerophosphate. […] The samples were vortexed and kept for 20 minutes at room temperature before transferring into a water bath at 30° C. The reaction was started by adding 10 μl of ATP (cold Mg-ATP and 1 μCi of [γ-^32P] ATP) and the reaction mixture was incubated at 30° C. in a shaker for 1 hr. To assess the kinetics of the reactions, phosphorylation was allowed to proceed for 20 minutes, 1 hour, 4 hours and 24 hours before the reaction was stopped. The reaction was terminated by adding 40 μl of loading Tricine sample buffer (200 mM Tris-HCl, pH 6.8, 2% SDS, 40% glycerol, 0.04% Coomassie G-250 dye). The samples were then boiled in a water bath for five minutes and subjected to electrophoresis on 16.5% Tris-Tricine gel run using Tris-Tricine/SDS buffer (containing 100 mM Tris, 100 mM Tricine, 0.1% SDS, pH 8.3) at 100V for 1.5 hours.
# In vitro phosphorylation assay was performed according to conventional procedure. 25 ul reactions containing 1 μg of R-SSD3 peptide indicated by SEQ NO. 2, in the presence and absence of 300 ng of either CK1 or CK2 or both containing 10 μCi ^32P γ [ATP]. The reactions were performed in triplicate at 30° C. for 1 hour, 4 hours and 24 hours using one batch of radiolabeled ATP and enzymes from a single lot.
# The reaction products were purified using SDS-PAGE, visualized by autoradiography, and band intensities were quantified using a Kodak 1D 3.6 imaging system. After autoradiography, the gel was overlaid on the autoradiogram, the individual protein bands were excised and ^32P incorporation was determined using a liquid scintillation counter (Beckman LS6500 system). To calculate the number of moles of phosphates transferred to 1 ug of peptide ([…]) in the kinase reaction, the mean counts per minute obtained in the kinase reactions from triplicates (minus blank) are divided by the specific activity of the ^32Pγ[ATP] in the kinase assay, as follows.
# [7] = tested on: rabbit ulna critical size defect; experiment: In vivo bone regeneration, rabbit ulna critical size defect
# Text: A collagen scaffold containing […] indicated by SEQ NO. 2 peptide was implanted into a critical size defect in a rabbit ulna model. […] 2 peptide eight weeks after the surgery. […] FIG. 10A is a low-magnification image and FIG. 10B is a close up of the area in FIG. 10A identified by a rectangle, of H&E stained nondecalcified sections of the regenerating ulnar bone eight weeks after the surgery.
molecule,measurement,setting,value
B1,collagen fibril mineralization,[1]; nonphosphorylated protein,no organized mineralization of collagen fibrils was observed
same,collagen fibril mineralization,[1]; phosphorylated protein,highly organized mineralized collagen fibrils
B2,collagen fibril mineralization,[1]; nonphosphorylated protein,no organized mineralization of collagen fibrils was observed
same,collagen fibril mineralization,[1]; phosphorylated protein,highly organized mineralized collagen fibrils
B3,average number of phosphates per peptide,"[2]; CK2, 1 hour",0.0148 (0.015) phosphates per peptide
same,average number of phosphates per peptide,"[2]; CK2, 4 hours",0.435 (0.099) phosphates per peptide
same,average number of phosphates per peptide,"[2]; CK2, 24 hours",4.4 phosphates per peptide and 4.354 (0.957) phosphates per peptide
same,share of all serines phosphorylated,"[2]; CK2 group, 24 hours",73%
same,share of all serines phosphorylated,"[3]; CK1+CK2 group, 24 hours",58%
same,average number of phosphates per peptide,"[3]; CK1 and CK2, 1 hour",0.0191 (0.007) phosphates per peptide
same,average number of phosphates per peptide,"[3]; CK1 and CK2, 4 hours",0.343 (0.124) phosphates per peptide
same,average number of phosphates per peptide,"[3]; CK1 and CK2, 24 hours",3.5 phosphates per peptide and 3.4555 (1.755) phosphates per peptide
same,maximum number of phosphates incorporated onto the peptide,[4],four out of six possible
same,collagen fibril mineralization pattern,"[5]; 15 μg/ml peptide, 16 hours, 37° C., pH 7.8, TEM",randomly oriented crystals formed throughout the grid
same,mineral nucleation outside of the collagen fibrils,"[5]; TEM, phosphorylated peptide experiments",suppressed mineral nucleation outside of the collagen fibrils
same,average number of phosphates per peptide,"[6]; CK1, 1 hour",0.006 (0.002) phosphates per peptide
same,average number of phosphates per peptide,"[6]; CK1, 4 hours",0.139 (0.103) phosphates per peptide
same,average number of phosphates per peptide,"[6]; CK1, 24 hours",1.8 phosphates per peptide and 1.778 (1.196) phosphates per peptide
same,share of all serines phosphorylated,"[6]; CK1 group, 24 hours",30%
B4,bone re-growth (MicroCT),"[7]; collagen scaffold containing peptide, 8 weeks, versus no implant",significant bone re-growth
same,bridging of the defect (H&E nondecalcified sections),[7]; eight weeks after the surgery,almost complete bridging of the critical size defect by bone
